# Reference: patent publication US20110027281A1 (Ablynx, published 2011)
# Positions count from the first letter of the chain named. In names and notes the source's numbering stands.
# T1: mouse TNF-alpha (mouse, UniProt P06804 80-235)
# T1 sequence (looked up): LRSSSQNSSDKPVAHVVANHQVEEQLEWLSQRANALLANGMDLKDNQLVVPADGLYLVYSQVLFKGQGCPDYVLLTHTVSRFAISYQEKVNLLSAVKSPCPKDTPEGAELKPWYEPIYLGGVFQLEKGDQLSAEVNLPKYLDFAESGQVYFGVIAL
# B1: VHH#m3F (VHH)
# VHH: QVQLQDSGGGLVQAGGSLRLSCAASGGTFSSIIMAWFRQAPGKEREFVGAVSWSGGTTVYADSVLGRFEISRDSARKSVYLQMNSLKPEDTAVYYCAARPYQKYNWASASYNVWGQGTQVTVSS
# B2: TETRA 3E (VHH)
# chain: QVQLQESGGGLVQPGGSLRLSCAASGRTFSDHSGYTYTIGWFRQAPGKEREFVARIYWSSGNTYYADSVKGRFAISRDIAKNTVDLTMNNLEPEDTAVYYCAARDGIPTSRSVESYNYWGQGTQVTVSSEPKTPKPQPAAAQVQLQESGGGLVQPGGSLRLSCAASGRTFSDHSGYTYTIGWFRQAPGKEREFVARIYWSSGNTYYADSVKGRFAISRDIAKNTVDLTMNNLEPEDTAVYYCAARDGIPTSRSVESYNYWGQGTQVTVSSEPKTPKPQPAAAQVQLQESGGGLVQPGGSLRLSCAASGRTFSDHSGYTYTIGWFRQAPGKEREFVARIYWSSGNTYYADSVKGRFAISRDIAKNTVDLTMNNLEPEDTAVYYCAARDGIPTSRSVESYNYWGQGTQVTVSSEPKTPKPQPAAAQVQLQESGGGLVQPGGSLRLSCAASGRTFSDHSGYTYTIGWFRQAPGKEREFVARIYWSSGNTYYADSVKGRFAISRDIAKNTVDLTMNNLEPEDTAVYYCAARDGIPTSRSVESYNYWGQGTQVTVSS
# B3: VHH#m9E (VHH)
# VHH: EVQLVESGGGLVQAGGSLRLSCAASGGTLSSYITGWFRQAPGKEREFVGAVSWSSSTIVYADSVEGRFTISRDNHQNTVYLQMDSLKPEDTAVYYCAARPYQKYNWASASYNVWGQGTQVTVSS
# B4: VHH#m4B (VHH)
# VHH: QVQLQDSGGGLVQAGGSLRLSCGVSGLSFSGYTMGWFRQAPGKEREFAAAIGWNSGTTEYRNSVKGRFTISRDNAKNTVYLQMNSLKPEDTAVYYCAASPKYMTAYERSYDFWGQGTQVTVSS
# B5: VHH#12B (VHH)
# VHH: QVQLQESGGGLVQPGGSLRLSCAASGFEFENHWMYWVRQAPGKGLEWVSTVNTNGLITRYADSVKGRFTISRDNAKYTLYLQMNSLKSEDTAVYYCTKVLPPYSDDSRTNADWGQGTQVTVSS
# B6: VHH#12B Q1E + Q5L + A74S + Y76N + K83R + P84A (VHH)
# VHH: B5 VHH with Q1E, Q5L, A75S, Y77N, K87R, S88A
# notes: Made by site-directed mutagenesis and purified on TALON; The tags are not described for the mutant; also called mutant Q1E+Q5L+A74S+Y76N+K83R+P84A; mutant 1E+Q5LA74S+Y76N+K83R+P84A
# B7: BIV 3E (VHH)
# chain: QVQLQDSGGGLVQAGGSLRLSCAASGGTFSSIIMAWFRQAPGKEREFVGAVSWSGGTTVYADSVLGRFEISRDSARKSVYLQMNSLKPEDTAVYYCAARPYQKYNWASASYNVWGQGTQVTVSSEPKTPKPQPAAAQVQLQDSGGGLVQAGGSLRLSCAASGGTFSSIIMAWFRQAPGKEREFVGAVSWSGGTTVYADSVLGRFEISRDSARKSVYLQMNSLKPEDTAVYYCAARPYQKYNWASASYNVWGQGTQVTVSS
# B8: BIV#m3F (VHH)
# chain: B7 chain
# B9: TRI 3E (VHH)
# chain: QVQLQESGGGLVQPGGSLRLSCAASGRTFSDHSGYTYTIGWFRQAPGKEREFVARIYWSSGNTYYADSVKGRFAISRDIAKNTVDLTMNNLEPEDTAVYYCAARDGIPTSRSVESYNYWGQGTQVTVSSEPKTPKPQPAAAQVQLQESGGGLVQPGGSLRLSCAASGRTFSDHSGYTYTIGWFRQAPGKEREFVARIYWSSGNTYYADSVKGRFAISRDIAKNTVDLTMNNLEPEDTAVYYCAARDGIPTSRSVESYNYWGQGTQVTVSSEPKTPKPQPAAAQVQLQESGGGLVQPGGSLRLSCAASGRTFSDHSGYTYTIGWFRQAPGKEREFVARIYWSSGNTYYADSVKGRFAISRDIAKNTVDLTMNNLEPEDTAVYYCAARDGIPTSRSVESYNYWGQGTQVTVSS
# Assays:
# [1] = target: T1, mouse TNF-alpha; assay: cell-based or functional assay
# [2] = target: T2, human Tumor Necrosis Factor alpha (human, UniProt P01375 77-233); assay: cell-based or functional assay
# T2 sequence (P01375 77-233 limits assumed): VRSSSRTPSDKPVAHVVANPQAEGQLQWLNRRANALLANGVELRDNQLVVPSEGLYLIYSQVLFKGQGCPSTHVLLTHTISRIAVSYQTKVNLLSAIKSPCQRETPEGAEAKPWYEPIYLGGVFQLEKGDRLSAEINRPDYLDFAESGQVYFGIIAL
# [3] = target: T2, human Tumor Necrosis Factor alpha; assay: in vitro receptor binding assay: biotinylated human TNF-alpha pre-incubated with VHH, binding to coated Enbrel
binder,measurement,setting,value
B1,"IC50, MTT cytotoxicity assay with L929 cells (mouse TNF-alpha 65 pg/ml)",[1],2 nM
same,"relative potency, MTT cytotoxicity assay with the murine cell line L929",[1],10 fold
B2,"IC50, cell based assay using KYM cells (TNF-alpha 1.29 ng/ml)",[2],6000 nM
B3,"IC50, MTT cytotoxicity assay with L929 cells (mouse TNF-alpha 65 pg/ml)",[1],25 nM
B4,"relative potency, MTT cytotoxicity assay with the murine cell line L929",[1],10 fold
B5,IC50,[3],66 nM
B6,IC50,[3],200 nM
same,fold increase of IC50 against wild type VHH#12B,[3],3 fold
B7,"IC50, cell based assay using KYM cells (TNF-alpha 1.29 ng/ml)",[2],0.03 nM
same,"fold lower IC50 than the monomer VHH#3E, cell based assay using KYM cells",[2],400 fold
B8,"IC50, MTT cytotoxicity assay with L929 cells (mouse TNF-alpha 65 pg/ml)",[1],2000 nM
same,"fold change of IC50 against monovalent 3F, MTT cytotoxicity assay with L929 cells",[1],1000 fold
B9,"IC50, cell based assay using KYM cells (TNF-alpha 1.29 ng/ml)",[2],20000 nM
